Results reported in patent publication US20230173042A1, “METHODS OF TREATMENT WITH ASPARAGINASE” (JAZZ PHARMACEUTICALS IRELAND LTD., priority 2017, published 2023).

Columns and labels:
THP-1 = test: Oncolines cell proliferation assay (ATP luminescence); type: cell-based; conditions: THP-1, acute monocytic leukemia
Procedure: (§1) Cell preparation. All cell lines have been licensed from the American Type Culture Collection (ATCC) Manassas, Va. (US). Master and Working Cell banks (MCB and WCB) were prepared by subculturing in ATCC-recommended media and freezing according to ATCC recommended protocols (www.atcc.org).
(§2) Compound preparation. Test compounds were prepared as stock solutions in DMSO or aqueous buffers as appropriate and serially diluted to obtain a dilution series.
(§3) Cell proliferation assay. Cell proliferation was assessed using a commercially available luminescence assay using ATP as the endpoint.
(§4) Controls. t=0 signal. On a parallel plate, 45 μl cells were dispensed and incubated in a humidified atmosphere of 5% CO2 at 37° C. After 24 hours 5 μl DMSO-containing Hepes buffer and 25 μl ATPlite 1Step™ solution were mixed, and luminescence measured after 10 minute incubation (=luminescencet=0).
(§5) Reference compound. The IC50 of the reference compound doxorubicin is measured on a separate plate. The IC50 is trended. If the IC50 is out of specification (0.32-3.16 times deviating from historic average) the assay is invalidated.
(§6) Cell growth control. The cellular doubling times of all cell lines are calculated from the t=0 hours and t=end growth signals of the untreated cells. If the doubling time is out of specification (0.5-2.0 times deviating from historic average) the assay is invalidated.
(§7) Maximum signals. For each cell line, the maximum luminescence was recorded after incubation until t=end without compound in the presence of 0.4% DMSO (=luminescenceuntreated,t=end).
(§8) IC50 were calculated by non-linear regression using IDBS XLfit. The percentage growth after incubation until t=end (%-growth) was calculated as follows: 100%×(luminescencet=end/luminescenceuntreated,t=end). This was fitted to the ^10log compound concentration (conc) by a 4-parameter logistics curve: %-growth=bottom+(top−bottom)/(1+10^(logIC50-conc)*hill)) where hill is the Hill-coefficient, and bottom and top the asymptotic minimum and maximum cell growth that the compound allows in that assay.
(§9) NCI60 parameters. The LD50, the concentration at which 50% of cells die, is the concentration where luminescencet=end=½×luminescencet=0h. […] This is concentration associated with the signal: ((luminescenceuntreated,t=end−luminescencet=0)/2)+luminescencet=0.
(§10) Curve fitting. […] The hill was fixed on −6 when the software calculated a lower value. […] Incidentally, when technical failures were likely, concentration points were knocked out.
(§11) The special volcano plot of FIG. 9 relates compound sensitivity (as measured by ^10logIC50) to the presence of cancer hotspot mutations. […] The hotspot mutations were derived from statistical analyses of the recurrence patterns of mutations and copy number alterations in patients through separate studies. Axes and statistical analyses are identical to the volcano plot of FIG. 8. The cutoff p-level for significance is 0.32. […] Effect20 For determination of the effect of the compound on the activity of other anti-cancer agents in SynergyScreen™ experiments, a low, fixed concentration is used, corresponding to the concentration at which cell growth is inhibited by 20%.

MV-4-11 = test: as above; type: cell-based; conditions: MV-4-11, biphenotypic B myelomonocytic leukemia
Procedure: as §1, §2, §3, §4, §5, §6, §7, §8, §9, §10, §11

HL-60 = test: as above; type: cell-based; conditions: HL-60, acute promyelocytic leukemia
Procedure: as §1, §2, §3, §4, §5, §6, §7, §8, §9, §10, §11

KG-1 = test: as above; type: cell-based; conditions: KG-1, acute myelogenous leukemia (AML)
Procedure: as §1, §2, §3, §4, §5, §6, §7, §8, §9, §10, §11

MOLT-4 = test: as above; type: cell-based; conditions: MOLT-4, acute lymphoblastic leukemia (ALL)
Procedure: as §1, §2, §3, §4, §5, §6, §7, §8, §9, §10, §11

DB = test: as above; type: cell-based; conditions: large cell lymphoma, B lymphoblast
Procedure: as §1, §2, §3, §4, §5, §6, §7, §8, §9, §10, §11

U-87-MG = test: as above; type: cell-based; conditions: glioblastoma, brain
Procedure: as §1, §2, §3, §4, §5, §6, §7, §8, §9, §10, §11

HT-1080 = test: as above; type: cell-based; conditions: HT-1080, fibrosarcoma
Procedure: as §1, §2, §3, §4, §5, §6, §7, §8, §9, §10, §11

HT = test: as above; type: cell-based; conditions: diffuse mixed lymphoma, B lymphoblast
Procedure: as §1, §2, §3, §4, §5, §6, §7, §8, §9, §10, §11

RL = test: as above; type: cell-based; conditions: non-Hodgkin's lymphoma, B lymphoblast
Procedure: as §1, §2, §3, §4, §5, §6, §7, §8, §9, §10, §11

HL-60 cell line = test: Combination (synergy) cell proliferation assay with pegcrisantaspase; type: cell-based
Procedure: Plate preparation. The stocks of the mixtures and single agents were diluted in DMSO or 0.9% sodium chloride to generate a 7-points dose-response series. After further 31.6 times dilution in 20 mM sterile Hepes buffer pH 7.4 (reference compounds) or medium (pegcrisantaspase), 5 μl of pegcrisantaspase solution, and 5 μl of reference compound was added to 40 μl pre-plated cells in duplicate in a 384-well assay plate. The final DMSO concentration during incubation was 0.4% in all wells.
Cell proliferation assay. A cell assay stock was thawed and diluted in appropriate medium and dispensed in a 384-well plate, depending on the cell line used, at a concentration of 800-3200 cells per well in […]: i.e., DB: 800 cells per well; RL: 1000 cells per well; MV-4-11: 1600 cells per well; KG-1, HL-60 and HT 3200 cells per well. For each used cell line the cell density was optimized previously. The margins of the plate were filled with phosphate-buffered saline. Plated cells were incubated in a humidified atmosphere of 5% CO2 at 37° C. After 24 hours, 5 μl of pegcrisantaspase solution, and 5 μl of reference compound was added, and plates were further incubated for another 72 hours. After 72 hours, plates were cooled in 30 minutes to room temperature and 25 μl of ATPlite 1Step™ (PerkinElmer) solution was added to each well, and subsequently shaken for 2 minutes. After 5 minutes of incubation in the dark at room temperature, the luminescence was recorded on an Envision multimode reader (PerkinElmer).
Controls: t=0 signal. On a parallel plate, 40 μl cells were dispensed in quadruplicate and incubated in a humidified atmosphere of 5% CO2 at 37° C. After 24 hours, plates were cooled to room temperature in 30 minutes. 5 μl DMSO-containing Hepes buffer, 5 μl 0.9% sodium chloride-containing medium and 25 μl ATPlite 1Step™ solution were added and subsequently mixed for 2 minutes. Luminescence was measured after 10 minute incubation (=luminescencet=0) in the dark.
as §6
Maximum signals. On each 384-well plate, the maximum luminescence was recorded after incubation for 72 hours without compound in the presence of 0.4% DMSO. All equivalent wells (usually 14) were averaged. This average is defined as: luminescenceuntreated,t=72h. Dose response curves. Accurate single agent IC50s are needed for combination analysis. For each single agent its dose-response signal was fitted by a 4-parameter logistics curve using XL-fit 5 (IDBS software):
luminescence=bottom+(top-bottom)/(1+10^(logIC50−log[cpd])−hill))
[cpd] is the compound concentration tested. hill is the Hill-coefficient. Bottom and top are the asymptotic minimum and maximum of the curve. Combination Index (CI) determination. The CI is one of the most widely used quantitative indications of synergy. The CI evaluates the concentrations needed to achieve a fixed-effect. A CI of below 1 indicates synergy.
CI is defined for a certain percentage cell viability (V), which is the signal related to a non-exposed control: V=100%×luminescencetreated,t=72h/luminescenceuntreated,t=72h. The concentrations of the two compounds cpd1 and cpd2 needed to reach a certain percentage cell viability V in combination are then compared to the concentrations needed as single agents:
IC50,cpd1 would signify the IC50 of cpd1 alone. The CI is labelled by %-effect, to follow conventions, so CI75 signifies the CI at 25% viability Curve shift analysis. This analysis provides a visual confirmation of synergy^1. The concentrations of the mixtures of compounds 1 and 2 (cpd1 and cpd2), and the single agents, were expressed in terms of IC50 equivalents (in ‘units’ of IC50):
The dose-response signal was fitted by a 4-parameter logistics curve using XL-fit 5 (IDBS software)

[1] = In vivo test of mPEG-r-crisantaspase with cytarabine and daunorubicin (tolerability, body weight); conditions: mice; PegC 5 & 50 IU/kg as single agent and with cytarabine 50 mg/kg and daunorubicin 1 mg/kg
[2] = in vivo; cited from earlier work
[3] = PEGylated enzyme relative to unmodified enzyme; cited from earlier work
[4] = children who received the drug; cited from earlier work
[5] = pegcrisantaspase with ABT-747, average Combination Index of the mixtures at ED50, HL-60

Molecule | Effect20 (concentration at which cell growth is inhibited by 20%) (THP-1) | Effect20 (concentration at which cell growth is inhibited by 20%) (MV-4-11) | Effect20 (concentration at which cell growth is inhibited by 20%) (HL-60) | Effect20 (concentration at which cell growth is inhibited by 20%) (KG-1) | Effect20 (concentration at which cell growth is inhibited by 20%) (MOLT-4) | Effect20 (concentration at which cell growth is inhibited by 20%) (DB) | Effect20 (concentration at which cell growth is inhibited by 20%) (U-87-MG) | Effect20 (concentration at which cell growth is inhibited by 20%) (HT-1080) | Effect20 (concentration at which cell growth is inhibited by 20%) (HT) | Effect20 (concentration at which cell growth is inhibited by 20%) (RL) | Curve shift (HL-60 cell line; pegcrisantaspase with ABT-747, HL-60, leftward shift indicates synergy) | Average CI value 1:1, 1:2 and 2:1 (HL-60 cell line; [5]) | Average CI value 1:1, 1:5 and 5:1 (HL-60 cell line; [5]) | Average CI value 1:1, 1:10 and 10:1 (HL-60 cell line; [5]) | IC50 (IU/mL) (HL-60 cell line; single agent, HL-60, 72 hours) | maximal effect (HL-60 cell line; single agents, dose-response curves of FIG. 3, HL-60) | tolerability [1] | patients antibody-positive [2] | in vitro activity compared to the unmodified L-asparaginase [3] | children who had an allergic reaction [4]
Pegcrisantaspase: mPEG-r-crisantaspase conjugate: Erwinia chrysanthemi L-asparaginase conjugated to polyethylene glycol, prepared as set forth in U.S. Pat. No. 9,920,311 (conjugate, UniProt P06608 22-348, looked up, mPEG conjugate) L-asparaginase: ADKLPNIVILATGGTIAGSAATGTQTTGYKAGALGVDTLINAVPEVKKLANVKGEQFSNMASENMTGDVVLKLSQRVNELLARDDVDGVVITHGTDTVEESAYFLHLTVKSDKPVVFVAAMRPATAISADGPMNLLEAVRVAGDKQSRGRGVMVVLNDRIGSARYITKTNASTLDTFKANEEGYLGVIIGNRIYYQNRIDKLHTTRSVFDVRGLTSLPKVDILYGYQDDPEYLYDAAIQHGVKGIVYAGMGAGSVSVRGIAGMRKAMEKGVVVIRSTRTGNGIVPPDEELPGLVSDSLNPAHARILLMLALTRTSDPKVIQEYFHTY | 0.012 IU/mL | 0.0088 IU/mL | 0.00028 IU/mL | 0.00018 IU/mL | 0.00019 IU/mL | 0.059 IU/mL | 0.057 IU/mL | 0.013 IU/mL | 0.033 IU/mL | 0.037 IU/mL | yes | 0.26 | 0.29 | 0.33 | 0.070 IU/mL | 88% | well tolerated |  |  | 
Erwinia L-asparaginase: L-asparaginase protein from Erwinia chrysanthemi, named crisantaspase, marketed as Erwinase (protein, UniProt P06608 22-348, looked up) L-asparaginase: ADKLPNIVILATGGTIAGSAATGTQTTGYKAGALGVDTLINAVPEVKKLANVKGEQFSNMASENMTGDVVLKLSQRVNELLARDDVDGVVITHGTDTVEESAYFLHLTVKSDKPVVFVAAMRPATAISADGPMNLLEAVRVAGDKQSRGRGVMVVLNDRIGSARYITKTNASTLDTFKANEEGYLGVIIGNRIYYQNRIDKLHTTRSVFDVRGLTSLPKVDILYGYQDDPEYLYDAAIQHGVKGIVYAGMGAGSVSVRGIAGMRKAMEKGVVVIRSTRTGNGIVPPDEELPGLVSDSLNPAHARILLMLALTRTSDPKVIQEYFHTY |  |  |  |  |  |  |  |  |  |  |  |  |  |  |  |  |  | 30-50% |  | 
Oncaspar: E. coli L-asparaginase modified at multiple lysine residues using 5 kDa mPEG-succinimidyl succinate (conjugate, UniProt P00805 23-348, looked up, 5 kDa mPEG-succinimidyl succinate on lysines, E. coli L-asparaginase modified at multiple lysine residues using 5 kDa mPEG-succinimidyl succinate) L-asparaginase 2: LPNITILATGGTIAGGGDSATKSNYTVGKVGVENLVNAVPQLKDIANVKGEQVVNIGSQDMNDNVWLTLAKKINTDCDKTDGFVITHGTDTMEETAYFLDLTVKCDKPVVMVGAMRPSTSMSADGPFNLYNAVVTAADKASANRGVLVVMNDTVLDGRDVTKTNTTDVATFKSVNYGPLGYIHNGKIDYQRTPARKHTSDTPFDVSKLNELPKVGIVYNYANASDLPAKALVDAGYDGIVSAGVGNGNLYKSVFDTLATAAKTGTAVVRSSRVPTGATTQDAEVDDAKYGFVASGTLNPQKARVLLQLALTQTKDPQQIQQIFNQY | 0.31 IU/mL | 0.26 IU/mL | 0.0003 IU/mL | 0.0001 IU/mL | 0.00019 IU/mL | 0.47 IU/mL | 0.4 IU/mL | 0.00025 IU/mL | 0.28 IU/mL | 0.37 IU/mL |  |  |  |  |  |  |  |  | approximately 50% | 30-41%
